Measured values: PMC11754596

Molecular target: p53 (UniProt P04637)
Assay: anti-Flag IP, anti-HA blot
Settings: reference: HA-STAT1 wild type; sites Y701

STAT1 (from UniProt P42224) HA-STAT1-Y701F
binding against the reference: weaker
